Here are results for two molecules from patent publication KR20210143097A (dated 2021).

Test [1] concerns the target T1, CD22 on B-cell lymphoma U2932 cells (UniProt P20273 20-847, limits assumed).
T1 construct: whole, on cells; Endogenous CD22 on the U2932 cell line; also called CD22를 발현하는 비세포림프종 U2932; CD22를 발현하는 U2932 세포
T1 sequence (looked up): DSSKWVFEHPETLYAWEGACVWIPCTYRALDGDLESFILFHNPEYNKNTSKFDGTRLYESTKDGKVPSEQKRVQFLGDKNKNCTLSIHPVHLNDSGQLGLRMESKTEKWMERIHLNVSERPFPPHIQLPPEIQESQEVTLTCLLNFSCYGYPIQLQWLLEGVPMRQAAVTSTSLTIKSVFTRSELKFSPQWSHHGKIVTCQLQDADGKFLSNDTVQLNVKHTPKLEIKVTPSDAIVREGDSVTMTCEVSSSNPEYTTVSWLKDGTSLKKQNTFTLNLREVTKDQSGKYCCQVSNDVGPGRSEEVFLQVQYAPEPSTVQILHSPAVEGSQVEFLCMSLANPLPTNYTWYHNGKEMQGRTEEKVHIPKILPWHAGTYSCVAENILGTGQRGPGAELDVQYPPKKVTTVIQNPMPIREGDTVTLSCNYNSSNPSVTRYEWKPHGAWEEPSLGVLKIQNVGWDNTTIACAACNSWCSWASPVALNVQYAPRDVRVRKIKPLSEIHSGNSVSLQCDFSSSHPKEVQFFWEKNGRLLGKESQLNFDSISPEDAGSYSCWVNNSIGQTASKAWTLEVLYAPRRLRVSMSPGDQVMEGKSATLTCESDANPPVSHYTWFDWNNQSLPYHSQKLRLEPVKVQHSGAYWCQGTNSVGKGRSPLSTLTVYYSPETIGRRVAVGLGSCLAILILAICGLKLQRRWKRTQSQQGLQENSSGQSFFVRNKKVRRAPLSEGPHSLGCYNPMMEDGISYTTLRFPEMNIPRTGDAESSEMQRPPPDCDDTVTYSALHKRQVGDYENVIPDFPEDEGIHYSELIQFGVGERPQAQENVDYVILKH
As to the kind of experiment: flow cytometry on U2932 cells, 1 ㎍ antibody per 1x10^6 cells, PE anti-mouse IgG secondary. In general terms: Flow cytometry measures light scatter and fluorescence of single cells or particles in a stream.

Test [2] concerns the target CD22-His tag (CD22 extracellular domain; ACRObiosystems Inc.) (UniProt P20273). As to the kind of experiment: ELISA, CD22-His tag coated at 100 ng/well, primary antibody 0.4 ㎍/㎖, absorbance at 450 nm. In general terms: An ELISA detects its analyte on a solid surface through an enzyme-linked reagent.

B1: 3F11 항체 (antibody, V domains shown)
VH: EVKLVESGGGLVQPGGSMKLSCVASGFTFSNYWMNWVRQSPEKGLEWVAEIRLKSNNYATHYAESVKGRFTISRDDSKSSVYLQMNNLRAEDTGIYYCTSIYYYGRDYAMDYWGQGTSVTVSS
VL: DIVMTQSPAIMSASLGERVTMTCTASSSVSSSYLHWYQQKPGSSPKLWIYSTSNLASGVPARFSGSGSGTSYSLTISSMEAEDAATYYCHQYHRSPYTFGGGTKLEIK
notes: Antibody from a mouse hybridoma, detected with an anti-mouse IgG secondary antibody
With B1, in test [1], the binding result is listed as “binds”. Further, the OD450 측정값 in test [2] stood at 1.86.

B2: 7B5 항체 (antibody, V domains shown)
VH: EVQLEESGPGLVAPSQSLSITCTVSGFSLTRYDISWIRQPPGKGLEWLGVMWTGGGTNYNSAFMSRLSISRDNSKSQVFLKMNSLQTDDTAIYYCVRSYYGSAMDYWGQGTSVTVSS
VL: DIVMTQSSSYLSVSLGGRVTITCKASDHINNWLAWYQQKPGNAPRLLISGATSLETGVPSRFSGSGSGKDYTLSITSLQTEDVATYYCQQHWSTPFTFGSGTKLEIK
notes: as for B1
As to B2, in test [1], the binding result was “binds”. In test [2], the OD450 측정값 turned out to be 2.66.
